According to the supplement of paper PMC10567573:

B1: TRIM55 (parent)
chain: FQASNPYLPTRGGTTMASGGRFRC
B2: SOAT1 (parent)
chain: PSNGRIDIKQLIAKKIKLTAEAEE

Variants of: B1
Assay: protein stability index of a GFP-peptide fusion (GPS, HEK-293T) (PSI 1-6); higher = more stable
Conditions: c terminus: a fixed tail appended
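Further: lentivirally expressed fusions sorted by FACS into six bins by GFP to DsRed ratio, PSI derived from sequencing read proportions per bin multiplied by bin number.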

Protein stability index, by site and new letter:
F22: Y 2.47; T 1.8; D 1.41; G 1.43; P 3.87; K 2.61; W 2.51; Q 3.22; S 1.75; V 1.38; M 2.25; R 2.13; N 2.14; C 2.18; E 2.46; A 1.42; H 2.29; I 1.57
C24: G 2.19; H 2.08; A 2.21; I 2.03; K 2.47; P 1.41; L 1.57; V 1.76; D 2.6; T 2; M 1.37; N 3.51; E 2.51; W 1.94; Q 2.22; F 2.23; Y 1.62; R 1.5; S 1.43
R23: Q 1.71; T 1.64; N 1.48; K 2.1; D 2.02; C 2.9; L 2.98; Y 2.5; E 1.99; M 1.61; G 1.6; H 1.56; V 1.88; I 1.62; P 2.91; F 1.51; S 1.8; A 2.37
R21: I 1.42; M 1.81; T 1.04; L 2.42; H 1.68; Y 1.68; G 1.53; Q 1.85; V 1.42; P 2.12; F 1.71; N 2.49; K 3.08; S 1.75

Variants of: B2
Assay: as above
Conditions: c terminus: a fixed tail appended

Protein stability index: each site, then its substitutions
P1: L 3.06; Y 3.62; W 2.92; N 3.14; M 3.1; G 3.33; E 2.65
A20: I 2.7; K 3.47; N 3.19; D 3.16; G 3.42; L 3.1; P 3.78; F 2.51; Q 3.44; V 2.8; W 2.66
E24: K 2.98; Y 2.68; Q 2.95; R 2.79; D 3.39; G 2.7; H 2.94; A 2.78; P 3.24; S 2.73; L 3.11; M 2.27; T 3.44
I16: N 4.02; H 3.78; E 4.45; D 4.42; S 3.9; R 3.65; G 4.5; W 3.18; Y 3.16; V 3.75; Q 3.52; L 3.22; M 3.51; F 2.97
E21: G 2.63; T 3.15; L 2.96; V 2.59; D 3.43; I 3.19; N 3.13; K 2.51
E23: P 2.88; F 1.75; V 2.3; W 2.31; R 2.74; T 3.13; L 2.12; Y 2.22; S 2.51; A 2.66; I 2.69
I6: C 3.26; G 4.1; A 3.79; R 3.4; K 3.74; P 3.37; L 3.18; F 2.83; S 3.46; N 3.3; H 3.61; W 2.91; Q 3.76
K9: A 3.04; W 2.02; V 2.9; E 4.03; T 3.23; S 3.28; N 3.66; L 2.77; H 3.07; Y 3.03; M 2.99; C 3.25
D7: W 3.46; M 2.89; I 3.08; N 3.33; R 2.94; Y 2.35; E 3.4; L 3.38; A 2.96
K17: W 2.53; Y 2.84; A 3.67; M 3.1; T 3.5; D 4.01; N 3.61; E 3.62; V 3.38; H 3.02; S 3.59; C 3.05
Q10: F 2.65; S 3.1; V 2.33; K 3.3; R 2.7; G 3.59; H 2.57; T 3.45; A 3.35
A22: I 2.59; F 2.35; Q 3.72; L 3.2; S 3.26; K 3.15; W 2.48; P 3.18; H 3.42; D 4.05
I8: D 4.48; F 3.54; S 3.99; N 4.01; A 3.42; T 4.48; R 4.06; L 3.62; Q 3.8; M 3.44; E 4.62; Y 4.13
S2: N 3.61; H 3.01; W 2.88; T 3.79; M 3.11; F 2.94; Q 3.63; R 3.08; V 2.96; L 3.09; C 3.26; P 3.35; K 2.58
L11: I 3.17; W 3.67; H 3.97; T 4.3; V 3.57; C 3.5; P 3.66; G 3.75; M 3.22; A 3.83; Y 3.42
K14: Q 3.22; Y 2.62; F 2.63; P 4.38; S 3.84; L 2.24; D 3.96; W 3.07; A 2.88; V 2.98; N 3.59; E 4.04; R 3.22; G 3.63
N3: L 3.46; E 4.27; G 3.88; Y 3.42; S 4.13; Q 4.09; T 4.2; K 3.96; C 3.86; R 3.93; H 4.32; I 3.87
K15: M 3.11; S 3.59; W 2.63; Y 2.69; V 2.42; I 2.48; D 4.25; H 3.17; T 3.13; E 4.52; C 2.5; F 2.47
A13: W 2.83; K 3.48; H 3.41; M 3.12; F 2.94; E 3.56; G 3.54; D 4.08; P 3.94
T19: N 3.29; C 3.06
L18: Y 3.13; N 3.73; S 3.59; T 3.38; Q 3.89; W 2.9; G 4.04; H 3.69; A 3.62
I12: S 3.82; A 3.53; T 3.89; F 3.5; G 3.9; W 2.78; E 4.35; Y 3.19; K 3.83; V 3.48; L 3.17; H 3.89; C 3.83; P 3.7; D 4.28; Q 4.17
G4: Y 2.91; C 3.33; A 3.77; H 3.36; W 2.85; V 3.04; K 3.77; R 3.56; L 3.48; E 4.39; I 3.18; F 3.56; D 4.92; S 3.57; N 3.76
R5: W 3.48; P 4.16; K 3.68; V 3.82; N 3.94; L 4.05; Y 3.81; T 4; I 3.93; F 3.49; H 4
